Data on two substances can be found in article PMC3378324.

Where only a bound is given, the exact number is not on record here.

For experiment [1], the target named is Nef (Human immunodeficiency virus 1) (UniProt P04324). The settings on record: cited from earlier work.
The target of experiment [2] is Fyn(R96I)-SH3, 6xHis C-terminal fusion (human) (UniProt P06241). The experiment can be described thus: ITC. Background: In ITC the heat of successive injections is recorded.
Experiment [3] deals with Fyn(WT)-SH3, 6xHis C-terminal fusion (human) (UniProt P06241). The experiment can be described thus: ITC.
Fyn(WT)-SH3, 6xHis C-terminal fusion (human), sequence (P06241 85-141): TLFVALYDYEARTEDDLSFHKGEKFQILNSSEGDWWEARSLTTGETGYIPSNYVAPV

Fyn SH3 SH3, sequence (P06241 79-146): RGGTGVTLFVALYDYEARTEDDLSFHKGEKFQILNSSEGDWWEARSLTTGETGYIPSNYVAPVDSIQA
Fyn(R96I)-SH3, 6xHis C-terminal fusion (human), sequence (P06241 86-143 R96I): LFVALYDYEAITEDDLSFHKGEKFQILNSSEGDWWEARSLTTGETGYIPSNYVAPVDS

The Kd is the equilibrium constant for the complex coming apart. Turning to Fyn SH3 SH3 (from UniProt P06241), the Kd in experiment [1] is over 20 µM.
For the substance “ALIXPI peptide (Alix residues 737 to 760) (from UniProt Q8WUM4 737-760)”, the Kd is 54 µM in experiment [2] and 160 µM in experiment [3].
